Tests used:
Assay in all cases: MST
UPF1 ΔStalk = biological target: T1, UPF1 ΔStalk (human, UniProt Q92900-2 1-1118, del271-433)
T1 sequence: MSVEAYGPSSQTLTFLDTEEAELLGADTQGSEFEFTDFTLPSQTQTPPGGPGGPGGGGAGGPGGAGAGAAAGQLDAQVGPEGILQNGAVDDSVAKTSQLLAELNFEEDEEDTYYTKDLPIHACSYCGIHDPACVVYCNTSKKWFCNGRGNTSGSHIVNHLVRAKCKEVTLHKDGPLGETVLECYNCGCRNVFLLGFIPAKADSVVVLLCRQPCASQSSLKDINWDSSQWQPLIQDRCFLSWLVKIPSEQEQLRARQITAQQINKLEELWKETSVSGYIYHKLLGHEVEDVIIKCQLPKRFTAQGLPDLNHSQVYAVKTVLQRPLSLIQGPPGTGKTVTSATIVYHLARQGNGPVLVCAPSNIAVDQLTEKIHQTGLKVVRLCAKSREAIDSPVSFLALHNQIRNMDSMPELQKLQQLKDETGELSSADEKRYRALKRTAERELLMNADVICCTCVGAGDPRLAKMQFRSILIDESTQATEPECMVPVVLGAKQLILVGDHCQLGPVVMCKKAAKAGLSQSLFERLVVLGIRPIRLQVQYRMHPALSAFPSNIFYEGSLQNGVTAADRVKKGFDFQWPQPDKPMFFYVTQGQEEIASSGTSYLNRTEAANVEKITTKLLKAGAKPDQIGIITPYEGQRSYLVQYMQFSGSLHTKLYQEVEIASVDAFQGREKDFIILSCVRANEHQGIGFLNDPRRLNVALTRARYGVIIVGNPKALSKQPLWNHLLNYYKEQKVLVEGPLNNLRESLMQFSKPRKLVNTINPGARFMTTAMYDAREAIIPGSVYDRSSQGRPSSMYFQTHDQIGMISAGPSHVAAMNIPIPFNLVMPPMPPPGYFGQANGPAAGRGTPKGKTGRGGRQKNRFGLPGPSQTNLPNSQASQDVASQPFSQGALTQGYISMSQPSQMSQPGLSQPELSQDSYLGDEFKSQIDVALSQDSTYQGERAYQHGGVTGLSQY

UPF1 WT = biological target: T2, UPF1 WT (human, UniProt Q92900-2 1-1118)
T2 sequence: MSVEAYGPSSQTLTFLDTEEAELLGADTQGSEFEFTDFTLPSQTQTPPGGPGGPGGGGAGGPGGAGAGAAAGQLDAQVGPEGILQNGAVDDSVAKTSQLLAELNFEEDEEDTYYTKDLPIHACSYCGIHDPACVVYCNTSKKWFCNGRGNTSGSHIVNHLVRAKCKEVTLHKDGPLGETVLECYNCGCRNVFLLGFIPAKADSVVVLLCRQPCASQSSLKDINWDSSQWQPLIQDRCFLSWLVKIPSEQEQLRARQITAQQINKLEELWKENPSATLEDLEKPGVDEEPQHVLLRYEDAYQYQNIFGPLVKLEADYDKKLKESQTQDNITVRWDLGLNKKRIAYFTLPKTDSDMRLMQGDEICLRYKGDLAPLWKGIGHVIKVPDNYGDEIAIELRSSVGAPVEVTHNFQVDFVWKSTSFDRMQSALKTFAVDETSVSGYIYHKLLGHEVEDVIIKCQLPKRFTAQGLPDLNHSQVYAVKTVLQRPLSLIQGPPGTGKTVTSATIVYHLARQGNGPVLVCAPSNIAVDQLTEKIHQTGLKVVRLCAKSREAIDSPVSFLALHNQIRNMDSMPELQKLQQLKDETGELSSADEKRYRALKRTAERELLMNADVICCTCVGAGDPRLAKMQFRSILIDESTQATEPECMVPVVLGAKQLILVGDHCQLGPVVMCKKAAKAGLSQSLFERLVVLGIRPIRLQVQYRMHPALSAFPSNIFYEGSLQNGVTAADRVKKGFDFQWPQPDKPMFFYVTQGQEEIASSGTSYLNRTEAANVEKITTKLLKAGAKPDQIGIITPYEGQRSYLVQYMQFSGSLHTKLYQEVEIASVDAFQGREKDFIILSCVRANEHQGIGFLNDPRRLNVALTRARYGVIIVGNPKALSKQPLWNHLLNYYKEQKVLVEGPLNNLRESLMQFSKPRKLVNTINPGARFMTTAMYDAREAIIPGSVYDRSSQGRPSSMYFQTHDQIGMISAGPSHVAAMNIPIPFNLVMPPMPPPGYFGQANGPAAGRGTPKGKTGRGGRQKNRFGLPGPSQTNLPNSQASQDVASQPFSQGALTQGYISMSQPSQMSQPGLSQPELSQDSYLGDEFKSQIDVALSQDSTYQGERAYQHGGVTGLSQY

SMG6 = SMG6 (human, UniProt Q86US8 1-1419)
UPF1 Δ1C = biological target: T3, UPF1 Δ1C (human, UniProt Q92900-2 1-1118, del561-608)
T3 sequence: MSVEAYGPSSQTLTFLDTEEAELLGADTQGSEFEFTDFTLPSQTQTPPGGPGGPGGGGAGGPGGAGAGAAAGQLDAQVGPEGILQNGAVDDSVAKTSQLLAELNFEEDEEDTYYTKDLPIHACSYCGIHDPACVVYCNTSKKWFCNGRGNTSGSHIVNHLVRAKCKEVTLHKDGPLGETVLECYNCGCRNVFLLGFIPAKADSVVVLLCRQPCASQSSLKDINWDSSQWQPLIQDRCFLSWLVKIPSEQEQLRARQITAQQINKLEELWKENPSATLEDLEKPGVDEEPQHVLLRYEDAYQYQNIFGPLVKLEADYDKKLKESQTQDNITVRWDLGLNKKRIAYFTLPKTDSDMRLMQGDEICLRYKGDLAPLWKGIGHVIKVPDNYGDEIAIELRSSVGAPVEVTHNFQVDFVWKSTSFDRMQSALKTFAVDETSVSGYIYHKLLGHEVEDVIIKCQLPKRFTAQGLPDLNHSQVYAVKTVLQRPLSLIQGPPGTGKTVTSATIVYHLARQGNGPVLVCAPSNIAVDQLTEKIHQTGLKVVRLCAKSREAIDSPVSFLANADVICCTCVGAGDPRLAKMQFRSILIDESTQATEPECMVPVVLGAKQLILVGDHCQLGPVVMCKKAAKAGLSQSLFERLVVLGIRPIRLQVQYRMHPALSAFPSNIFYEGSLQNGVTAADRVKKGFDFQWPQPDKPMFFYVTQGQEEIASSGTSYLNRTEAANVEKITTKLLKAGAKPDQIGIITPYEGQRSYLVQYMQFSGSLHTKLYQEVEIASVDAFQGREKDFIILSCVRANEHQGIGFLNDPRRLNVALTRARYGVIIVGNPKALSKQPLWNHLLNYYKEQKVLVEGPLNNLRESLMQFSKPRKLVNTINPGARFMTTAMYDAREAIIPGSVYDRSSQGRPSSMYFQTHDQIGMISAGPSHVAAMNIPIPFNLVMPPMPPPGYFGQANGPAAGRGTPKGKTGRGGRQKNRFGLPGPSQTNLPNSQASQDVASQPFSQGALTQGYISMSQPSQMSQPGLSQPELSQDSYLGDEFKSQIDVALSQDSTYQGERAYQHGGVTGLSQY

Sequence of SMG6 (Q86US8 whole entry): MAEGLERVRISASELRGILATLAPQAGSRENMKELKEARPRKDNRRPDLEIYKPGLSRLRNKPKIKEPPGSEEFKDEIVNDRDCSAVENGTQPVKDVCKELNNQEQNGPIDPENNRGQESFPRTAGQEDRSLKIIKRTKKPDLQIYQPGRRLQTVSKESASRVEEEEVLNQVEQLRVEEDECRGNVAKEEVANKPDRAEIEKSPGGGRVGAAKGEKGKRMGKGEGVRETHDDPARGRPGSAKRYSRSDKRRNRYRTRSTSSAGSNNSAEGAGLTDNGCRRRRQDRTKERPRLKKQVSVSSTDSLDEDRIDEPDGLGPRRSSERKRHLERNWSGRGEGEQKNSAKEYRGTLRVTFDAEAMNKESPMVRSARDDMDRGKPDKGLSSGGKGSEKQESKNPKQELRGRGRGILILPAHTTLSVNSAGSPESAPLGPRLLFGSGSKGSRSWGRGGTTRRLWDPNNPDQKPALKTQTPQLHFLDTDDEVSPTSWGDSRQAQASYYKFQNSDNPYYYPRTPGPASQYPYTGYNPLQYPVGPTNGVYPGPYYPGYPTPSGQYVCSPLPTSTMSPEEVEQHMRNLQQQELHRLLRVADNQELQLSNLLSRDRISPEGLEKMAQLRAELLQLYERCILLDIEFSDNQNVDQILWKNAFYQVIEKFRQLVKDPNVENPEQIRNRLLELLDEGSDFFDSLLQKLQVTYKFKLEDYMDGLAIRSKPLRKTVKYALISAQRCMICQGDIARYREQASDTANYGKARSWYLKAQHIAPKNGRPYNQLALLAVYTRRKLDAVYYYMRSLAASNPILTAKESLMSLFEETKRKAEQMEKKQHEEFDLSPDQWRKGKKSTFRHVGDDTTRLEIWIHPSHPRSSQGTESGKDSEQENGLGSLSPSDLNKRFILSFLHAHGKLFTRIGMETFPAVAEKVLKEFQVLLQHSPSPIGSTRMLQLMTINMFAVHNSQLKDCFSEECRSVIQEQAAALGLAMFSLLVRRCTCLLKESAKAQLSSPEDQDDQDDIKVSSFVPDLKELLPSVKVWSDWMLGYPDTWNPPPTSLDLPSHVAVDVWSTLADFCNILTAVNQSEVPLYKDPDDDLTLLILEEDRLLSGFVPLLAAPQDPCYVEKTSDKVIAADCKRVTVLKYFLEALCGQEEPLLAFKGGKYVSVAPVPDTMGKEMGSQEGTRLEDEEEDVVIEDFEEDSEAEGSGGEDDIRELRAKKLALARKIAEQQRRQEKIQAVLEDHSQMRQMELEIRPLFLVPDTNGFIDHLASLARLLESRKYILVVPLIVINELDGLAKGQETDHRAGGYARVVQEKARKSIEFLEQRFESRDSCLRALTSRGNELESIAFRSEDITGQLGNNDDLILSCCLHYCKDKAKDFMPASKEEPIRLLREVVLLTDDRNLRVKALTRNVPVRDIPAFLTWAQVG

**Q.** For UUUUUUUUUUUUUUUUUUUUUUUUUUUUUU (ssRNA) [U30 RNA], which Kd (UPF1 ΔStalk) is on record?
**A.** 6.51 nM

**Q.** And the Kd (UPF1 WT)?
**A.** 1.48 nM

**Q.** Does UUUUUUUUUUUUUUUUUUUUUUUUUUUUUU (ssRNA) [U30 RNA] bind (SMG6)?
**A.** no binding

**Q.** And the binding signal (UPF1 Δ1C)?
**A.** 32.2 fold lower affinity than WT

Reference: PMC4132754 (Nucleic Acids Research, 2014)
